In patent publication US20140378382A1 (WISCONSIN ALUMNI RESEARCH FOUNDATION, published 2014):
Read-outs that look alike come from different tables or passages of the source. Non-standard residues stand in square brackets, D forms with d. Primed or numbered codes have the meaning given here. No end group written: not given here. APC = aminopyrrolidine carboxylic acid (2-aminopyrrolidine-4-carboxylic acid); ACPC″ = 2-aminocyclopentane carboxylic acid (X); ACPC = 2-aminocyclopentane carboxylic acid; β3hS = N[C@@H](CO)CC(=O)O; Aib = CC(C)(N)C(=O)O

Tests used:
[1] = biological target: T1, PTHR-1 (species and cells not stated for the assay) (Homo sapiens (Human), UniProt Q03431 27-593); assay: cell-based or functional assay
T1 sequence: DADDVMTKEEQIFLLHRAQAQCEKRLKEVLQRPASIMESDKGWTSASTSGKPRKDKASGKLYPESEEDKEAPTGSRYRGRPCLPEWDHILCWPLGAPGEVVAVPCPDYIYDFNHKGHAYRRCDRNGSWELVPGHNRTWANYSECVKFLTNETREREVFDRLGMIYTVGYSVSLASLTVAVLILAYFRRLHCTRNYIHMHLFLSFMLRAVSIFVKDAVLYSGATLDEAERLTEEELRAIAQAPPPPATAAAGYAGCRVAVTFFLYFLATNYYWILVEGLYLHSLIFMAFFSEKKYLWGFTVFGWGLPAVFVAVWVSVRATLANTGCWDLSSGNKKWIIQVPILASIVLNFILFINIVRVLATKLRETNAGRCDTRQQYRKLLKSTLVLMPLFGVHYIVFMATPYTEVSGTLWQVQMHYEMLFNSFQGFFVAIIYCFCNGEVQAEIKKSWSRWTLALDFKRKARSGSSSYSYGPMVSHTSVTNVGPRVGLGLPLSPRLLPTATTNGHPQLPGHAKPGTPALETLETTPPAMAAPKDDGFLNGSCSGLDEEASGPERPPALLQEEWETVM

[2] = biological target: T2, human parathyroid hormone receptor 1, wild-type (hPTHR-1) (human, UniProt Q03431 27-593); assay: R0 binding, GP2.3 membranes (human PTHR-1); tracer not stated here
T2 construct: whole, on cells; also called human PTHR-1; PTHR-1-WT
T2 sequence (looked up): T1 sequence

[3] = biological target: T2, human parathyroid hormone receptor 1, …; assay: cell-based or functional assay
delNT PTHR1 = biological target: T3, delNT PTHR1 (human, UniProt Q03431 27-593); assay: cell-based or functional assay
T3 sequence (looked up): T1 sequence

[4] = biological target: T1, PTHR-1 (species and cells not stated …); assay: cell-based or functional assay; remark: listed apart in the source
[5] = biological target: T2, human parathyroid hormone receptor 1, …; assay: cell-based or functional assay; remark: listed apart in the source
[6] = biological target: T2, human parathyroid hormone receptor 1, …; assay: cell-based or functional assay; remark: listed apart in the source
[7] = biological target: T4, rat parathyroid hormone receptor 1, wild-type (rPTHR-1) (rat, UniProt P25961 27-591); assay: cell-based or functional assay
T4 sequence (looked up): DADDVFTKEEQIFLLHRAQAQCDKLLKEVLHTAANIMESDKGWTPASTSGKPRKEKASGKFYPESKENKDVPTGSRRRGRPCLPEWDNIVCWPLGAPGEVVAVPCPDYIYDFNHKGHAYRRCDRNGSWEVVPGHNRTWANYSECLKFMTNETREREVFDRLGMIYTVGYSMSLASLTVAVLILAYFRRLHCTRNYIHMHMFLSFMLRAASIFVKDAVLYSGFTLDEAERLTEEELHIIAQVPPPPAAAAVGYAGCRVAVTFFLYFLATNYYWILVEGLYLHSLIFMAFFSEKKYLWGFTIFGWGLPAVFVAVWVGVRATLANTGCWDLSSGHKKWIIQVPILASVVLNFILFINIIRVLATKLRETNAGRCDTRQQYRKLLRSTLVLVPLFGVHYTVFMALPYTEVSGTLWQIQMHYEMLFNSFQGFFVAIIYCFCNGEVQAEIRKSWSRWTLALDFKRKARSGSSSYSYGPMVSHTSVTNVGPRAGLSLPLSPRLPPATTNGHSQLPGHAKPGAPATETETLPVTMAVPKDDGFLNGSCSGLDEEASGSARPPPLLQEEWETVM

[8] = biological target: T2, human parathyroid hormone receptor 1, …; assay: R0 state; 125I-PTH(1-34) displacement; COS-7 membranes, hPTHR-1, GTPγS
From the text: (§1) ^aValues are means of n ≧4 experiments, each performed in duplicate.

[9] = biological target: T2, human parathyroid hormone receptor 1, …; assay: as above; remark: listed apart in the source
From the text: (§2) FIGS. 6A, 6B, 6C, 6D, 6E, and 6F constitute a series of graphs depicting binding of various analogs to the R⁰ and RG forms of human PTHR-1 (hPTHR-1). […] Data are means (±SEM) of n≧4 experiments, each performed in duplicate.

[10] = biological target: T4, rat parathyroid hormone receptor 1, …; assay: R0 state; 125I-PTH(1-34) displacement; COS-7 membranes, rPTHR-1, GTPγS
From the text: (§3) Binding inhibition constants are expressed as the -log (IC50) and corresponding nanoMolar (nM) values. Values are means (±SEM) of the number of experiments shown (n), each performed in duplicate.

[11] = biological target: T4, rat parathyroid hormone receptor 1, …; assay: RG state; 125I-M-PTH(1-15) displacement; COS-7 membranes, rPTHR-1 + Gαs mutant
From the text: as §3

[12] = biological target: T4, rat parathyroid hormone receptor 1, …; assay: cell-based or functional assay; remark: listed apart in the source
[13] = biological target: T4, rat parathyroid hormone receptor 1, …; assay: cell-based or functional assay; set-up: AUC-on / AUC-washout: unit not given beside the values
[14] = biological target: T4, rat parathyroid hormone receptor 1, …; assay: R0 state; 125I-PTH(1-34) displacement; COS-7 membranes, rPTHR-1, GTPγS; remark: listed apart in the source
From the text: as §3

[15] = biological target: T2, human parathyroid hormone receptor 1, …; assay: RG state; 125I-M-PTH(1-15) displacement; COS-7 membranes, hPTHR-1 + Gαs mutant
From the text: as §1

[16] = biological target: T4, rat parathyroid hormone receptor 1, …; assay: RG state; 125I-M-PTH(1-15) displacement; COS-7 membranes, rPTHR-1 + Gαs mutant; remark: listed apart in the source
From the text: as §3

[17] = biological target: T2, human parathyroid hormone receptor 1, …; assay: RG state; 125I-M-PTH(1-15) displacement; COS-7 membranes, hPTHR-1 + Gαs mutant; remark: listed apart in the source
From the text: as §2

[18] = biological target: T2, human parathyroid hormone receptor 1, …; assay: ratio of R0 IC50 to RG IC50, hPTHR-1
[19] = biological target: T4, rat parathyroid hormone receptor 1, …; assay: ratio of R0 IC50 to RG IC50, rPTHR-1
From the text: as §3

[20] = biological target: T1, PTHR-1 (species and cells not stated …); assay: cell-based or functional assay; remark: listed apart in the source
[21] = biological target: parathyroid hormone receptor-2 (PTHR-2); assay: cell-based or functional assay
[22] = biological target: T2, human parathyroid hormone receptor 1, …; assay: cell-based or functional assay; remark: listed apart in the source

parathyroid hormone receptor-2 (PTHR-2), sequence (P49190 whole entry): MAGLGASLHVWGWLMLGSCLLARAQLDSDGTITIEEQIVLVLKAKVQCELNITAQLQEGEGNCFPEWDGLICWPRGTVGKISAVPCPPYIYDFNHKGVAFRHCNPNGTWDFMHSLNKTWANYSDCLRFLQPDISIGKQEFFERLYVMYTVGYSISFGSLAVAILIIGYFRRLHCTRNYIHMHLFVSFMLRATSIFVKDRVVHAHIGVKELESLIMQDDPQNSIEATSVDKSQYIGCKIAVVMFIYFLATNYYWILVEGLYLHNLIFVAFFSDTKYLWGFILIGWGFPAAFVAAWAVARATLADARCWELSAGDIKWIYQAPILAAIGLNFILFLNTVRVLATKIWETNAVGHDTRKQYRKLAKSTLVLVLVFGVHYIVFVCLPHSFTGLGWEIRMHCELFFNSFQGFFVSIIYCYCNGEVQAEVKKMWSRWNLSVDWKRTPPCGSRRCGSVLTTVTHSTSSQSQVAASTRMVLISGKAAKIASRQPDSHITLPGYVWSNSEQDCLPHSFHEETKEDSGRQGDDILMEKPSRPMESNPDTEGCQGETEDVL

## [β3hS]V[Aib]EIQ[ACPC″]MHNLGK[ACPC″]LNS[ACPC″]ERV[APC]WLR[APC]KLQ[ACPC″]VHN[ACPC″]-NH2 [FcycD6_β3Ser(1), Aib(3), ACPC (7)]
[1]
  cAMP EC50: 0.21 nM
[2]
  IC50: 1.54 nM

## SVSEIQ[ACPC]MHNLGKHLNSMERVEWLRKKLQDVHNF-NH2 [ACPC(7) PTH(1-34)]
[3]
  Fold PTH: 1.3 fold
  cAMP EC50: 0.12 nM
delNT PTHR1
  Fold PTH: 74 fold
  cAMP EC50: 4600 nM
[4]
  cAMP response PTH1R/PTH2R: 44 ratio

B1: B3 (peptide)
peptide: SVSEIQLMHNLGKHLNSMERVEWLRKKLQDVQNF-NH2
modifications: not fully specified (residue 32); printed as SVSEIQLMHNLGKHLNSMERVEWLRKKLQDVQNF-NH2; also: three β3 residues, positions not given here in text
notes: also called α/β-peptide B3
[5]
  cAMP EC50: 0.11 nM
  cAMP Max: 1.08 relative to PTH(1-34)
[6]
  cAMP EC50: 0.11 nM
  cAMP Max: 234 cps × 10^-3
  cAMP pEC50: 9.94
[7]
  cAMP EC50: 0.55 nM
  cAMP Max: 69 cps × 10-3
  cAMP pEC50: 9.26
[8]
  IC50: 80 nM
[9]
  -log (IC50): 7.1
  IC50: 80 nM
[10]
  -log (IC50): 6.95
  IC50: 111 nM
[11]
  -log (IC50): 8.07
  IC50: 8.6 nM

B2: B5 (peptide)
peptide: SVSEIQLMHNLGKHLNSMERVEWLRKKLQDVQNF-NH2
modifications: not fully specified (residues 20, 24, 28, 32); printed as SVSEIQLMHNLGKHLNSMERVEWLRKKLQDVQNF-NH2; also: five β3 residues, positions not given here in text
notes: also called α/β-peptide B5
[5]
  cAMP EC50: 0.11 nM
  cAMP Max: 0.98 relative to PTH(1-34)
[12]
  cAMP EC50: 1.45 nM
  cAMP Max: 0.78 relative to PTH(1-34)
[6]
  cAMP EC50: 0.11 nM
  cAMP Max: 212 cps × 10^-3
  cAMP pEC50: 9.97
[7]
  cAMP EC50: 1.45 nM
  cAMP Max: 51 cps × 10-3
  cAMP pEC50: 8.84
[13]
  AUC-on: 130000
  AUC-washout: 84000
[8]
  IC50: 19 nM
[14]
  IC50: 65 nM
[9]
  -log (IC50): 7.72
  IC50: 19 nM
[10]
  -log (IC50): 7.18
  IC50: 65 nM
[15]
  IC50: 0.086 nM
[16]
  IC50: 4.2 nM
[17]
  -log (IC50): 10.1
  IC50: 0.086 nM
[11]
  -log (IC50): 8.37
  IC50: 4.2 nM

B3: D7 (peptide)
peptide: SVSEIQLMHNLGKWLNSMERVEWLRKKLQDVHNF-NH2
modifications: not fully specified (residue 14); printed as SVSEIQLMHNLGKWLNSMERVEWLRKKLQDVHNF-NH2; also: seven β3 residues, positions not given here in text
notes: also called α/β-peptide D7
[5]
  cAMP EC50: 0.39 nM
  cAMP Max: 0.85 relative to PTH(1-34)
[6]
  Fold PTH(1-34): 2.26 fold
  cAMP EC50: 0.39 nM
  cAMP Max: 184 cps × 10^-3
  cAMP pEC50: 9.41
[7]
  Fold PTH(1-34): 3.89 fold
  cAMP EC50: 1.62 nM
  cAMP Max: 40 cps × 10-3
  cAMP pEC50: 8.79
[18]
  R^0/RG: 15 ratio
[19]
  R^0/RG: 7 ratio
[8]
  IC50: 3.5 nM
[9]
  -log (IC50): 8.45
  IC50: 3.5 nM
[10]
  -log (IC50): 7.83
  IC50: 14.8 nM
[15]
  IC50: 0.24 nM
[17]
  -log (IC50): 9.63
  IC50: 0.24 nM
[11]
  -log (IC50): 8.69
  IC50: 2 nM

## [ACPC″]VSE[ACPC″]Q[ACPC″]MHNLGK[ACPC″]LNS[ACPC″]ERV[APC]WLR[APC]KLQ[ACPC″]VHN[ACPC″]-NH2 [FcycD6_ACPC(1,5,7)]
[20]
  Fold PTH: 234 fold
  cAMP EC50: 19.1 nM
[1]
  cAMP EC50: 25.9 nM
[21]
  cAMP response PTH2R/PTH1R: 45 ratio

## [ACPC]VSE[ACPC]Q[ACPC]MHNLGKHLNSMERVEWLRKKLQDVHNF-NH2 [ACPC(1,5,7)]
[20]
  Fold PTH: 36.7 fold
  cAMP EC50: 2.99 nM
[21]
  cAMP response PTH2R/PTH1R: 11 ratio

## [β3hS]VSE[ACPC″]Q[ACPC″]MHNLGK[ACPC″]LNS[ACPC″]ERV[APC]WLR[APC]KLQ[ACPC″]VHN[ACPC″]-NH2 [FcycD6_β3Ser(1), ACPC(5,7)]
[1]
  cAMP EC50: 0.79 nM
[2]
  IC50: 89.4 nM

## [ACPC]VSE[ACPC]Q[ACPC]LHDKGKSIQDLRRRFFLHKLIAEIHTA-NH2 (not fully specified; also: D6 β3 residues, positions not shown (marking lost)) [D6 hPTHrP(1-34) ACPC(1,5,7)]
[22]
  cAMP EC50: 1.03 nM

## [ACPC]VSE[ACPC]Q[ACPC]LHDKGK[ACPC]IQD[ACPC]RRR[APC]FLH[APC]LIA[ACPC]IHT[ACPC]-NH2 [CycD6 hPTHrP(1-34) ACPC(1,5,7)]
[22]
  cAMP EC50: 1.08 nM

## AVSEHQLLHDKGK[ACPC]IQD[ACPC]RRR[APC]FLH[APC]LIA[ACPC]IHT[ACPC]-NH2 [CycD6 hPTHrP(1-34)]
[22]
  cAMP EC50: 0.65 nM
